From publication PMC5373536, “Proteomic analysis of organic sulfur compound utilisation in Advenella mimigardefordensis strain DPN7^T” (PLoS ONE, 2017)

Substrate: O=C(O)CC(S)C(=O)O
Assay: oxygen consumption, oxygen electrode, nonlinear regression
Type: biochemical, Advenella mimigardefordensis
Details: 100 mM Tris/HCl pH 7.4, 0.05-75 mM MS, 2 ug/ml enzyme, O2 co-substrate

B1: MsdoDPN7 (MsdoAm; MIM_c37420) (Advenella mimigardefordensis DPN7) (protein)
chain: MTSKQDKQVAIRQFIDITKDIDSAQLDREKLAKIRDALVGIAAHKEWWGQDLYPAPTGDELQARYLIHAEPDNSYALYLNVMKPGKKIVPHNHTTWACIAAVEGVESNYLYERTDDGSVPGHATVVQTGMQAVEPGHGIALMPDDIHAVRIEDDNIRHLHMYGRALETLTERMAFDTSNNTCKIMDVGVKTQRSKG
notes: full gene in pET-19b (NdeI/XhoI), N-terminal His tag, expressed in E. coli BL21(DE3) pLysS, Ni-NTA purified; tag removal not mentioned
Km: 200 µM
